Measured values reported in the supplement of paper PMC10567573.

B1: HESX1 (parent)
chain: HVPNPPSGISFPSVVDHPMPEERA

Variants of: B1
Assay: protein stability index of a GFP-peptide fusion (GPS, HEK-293T) (PSI 1-6); higher = more stable
Details: c terminus: a fixed tail appended
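Note: lentivirally expressed fusions sorted by FACS into six bins by GFP to DsRed ratio, PSI derived from sequencing read proportions per bin multiplied by bin number.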

Variant | protein stability index
HVPNPPSGISFPSVVDHPHPEERA [M19H] | 3.03
HVPNPPSGISFPSVVDHPKPEERA [M19K] | 3.31
HVPNPPSGISFPSVVDHPGPEERA [M19G] | 2.44
HVPNPPSGISFPSVVDHPRPEERA [M19R] | 2.83
HVPNPPSGISFPSVVDHPQPEERA [M19Q] | 3.17
HVPNPPSGISFPSVVDHPVPEERA [M19V] | 2.44
HVPNPPSGISFPSVVDHPLPEERA [M19L] | 2.39
HVPNPPSGISFPSVVDHPYPEERA [M19Y] | 2.27
HVPNPPSGISFPSVVDHPFPEERA [M19F] | 2.65
HVPNPPSGISFPSVVDHPNPEERA [M19N] | 2.97
HVPNPPSGISFPSVVDHPIPEERA [M19I] | 2.59
HVPNPPSGISFPSVVDHPAPEERA [M19A] | 2.99
HVPNPPSGISFPSVVDHPWPEERA [M19W] | 2.29
HVPNPPSGISFPSVVDHPSPEERA [M19S] | 3.18
HVPNPPSGISFPSVVDHPEPEERA [M19E] | 3.69
HVPNPPSGISFPSVVDHPDPEERA [M19D] | 2.94
HVPNPPSGISFPSVVDHPCPEERA [M19C] | 2.37
HVPNPPSGISFPSVVDHPTPEERA [M19T] | 2.59
HVPNPPSGISFPSVVDHPMPEERY [A24Y] | 2.13
HVPNPPSGISFPSVVDHPMPEERQ [A24Q] | 2.38
HVPNPPSGISFPSVVDHPMPEERG [A24G] | 2.33
HVPNPPSGISFPSVVDHPMPEERL [A24L] | 2.32
HVPNPPSGISFPSVVDHPMPEERD [A24D] | 2.77
HVPNPPSGISFPSVVDHPMPEERE [A24E] | 2.95

Variant | protein stability index
HVPNPPSGISFPSVVDHPMPEERV [A24V] | 2.98
HVPNPPSGISFPSVVDHPMPEERN [A24N] | 2.74
HVPNPPSGISFPSVVDHPMPEERK [A24K] | 2.63
HVPNPPSGISFPSVVDHPMPEERW [A24W] | 1.91
HVPNPPSGISFPSVVDHPMPEERP [A24P] | 2.98
HVPNPPSGISFPSVVDHPMPEERM [A24M] | 2.77
HVPNPPSGISFPSVVDHPMPEERR [A24R] | 2.87
HVPNPPSGISFPSVVDHPMPEERI [A24I] | 2.36
HVPNPPSGISFPSVVDHPMPEERC [A24C] | 2.09
HVPNPPSGISFPSVVDHPMPEERH [A24H] | 2.65
HVPNPPSGISFPSVVDHPMPEERT [A24T] | 2.87
HVPNPPSGISFPSVVDHPMPEERF [A24F] | 2.3
HVPNPPSGISFPSVVDHPMPEERS [A24S] | 2.5
HVPNPPSGISFPSVVDHPMTEERA [P20T] | 2.91
HVPNPPSGISFPSVVDHPMMEERA [P20M] | 2.79
HVPNPPSGISFPSVVDHPMYEERA [P20Y] | 2.24
HVPNPPSGISFPSVVDHPMIEERA [P20I] | 2.49
HVPNPPSGISFPSVVDHPMVEERA [P20V] | 2.55
HVPNPPSGISFPSVVDHPMAEERA [P20A] | 2.74
HVPNPPSGISFPSVVDHPMQEERA [P20Q] | 2.78
HVPNPPSGISFPSVVDHPMCEERA [P20C] | 2.45
HVPNPPSGISFPSVVDHPMSEERA [P20S] | 2.82
HVPNPPSGISFPSVVDHPMFEERA [P20F] | 2.21
HVPNPPSGISFPSVVDHPMHEERA [P20H] | 2.65

Variant | protein stability index
HVPNPPSGISFPSVVDHPMGEERA [P20G] | 2.61
HVPNPPSGISFPSVVDHPMEEERA [P20E] | 2.48
HVPNPPSGISFPSVVDHPMLEERA [P20L] | 2.48
HVPNPPSGISFPSVVDHPMNEERA [P20N] | 3.28
HVPNPPSGISFPSVVDHPMDEERA [P20D] | 2.98
HVPNPPSGISFPSVVDHPMREERA [P20R] | 2.88
HVPNPPSGISFPSVVDHPMKEERA [P20K] | 2.54
HVPNPPSGISFPSVVDHPMWEERA [P20W] | 2.1
HVPNPPSGISFPSVVDHPMPMERA [E21M] | 1.86
HVPNPPSGISFPSVVDHPMPLERA [E21L] | 1.97
HVPNPPSGISFPSVVDHPMPSERA [E21S] | 2.56
HVPNPPSGISFPSVVDHPMPDERA [E21D] | 2.85
HVPNPPSGISFPSVVDHPMPRERA [E21R] | 2.52
HVPNPPSGISFPSVVDHPMPFERA [E21F] | 1.96
HVPNPPSGISFPSVVDHPMPWERA [E21W] | 2
HVPNPPSGISFPSVVDHPMPAERA [E21A] | 2.49
HVPNPPSGISFPSVVDHPMPQERA [E21Q] | 2.33
HVPNPPSGISFPSVVDHPMPTERA [E21T] | 2.52
HVPNPPSGISFPSVVDHPMPHERA [E21H] | 2.45
HVPNPPSGISFPSVVDHPMPCERA [E21C] | 2.71
HVPNPPSGISFPSVVDHPMPIERA [E21I] | 1.95
HVPNPPSGISFPSVVDHPMPYERA [E21Y] | 2.43
HVPNPPSGISFPSVVDHPMPPERA [E21P] | 2.06
HVPNPPSGISFPSVVDHPMPGERA [E21G] | 2.08

Variant | protein stability index
HVPNPPSGISFPSVVDHPMPNERA [E21N] | 2.37
HVPNPPSGISFPSVVDHPMPVERA [E21V] | 2.48
HVPNPPSGISFPSVVDHPMPKERA [E21K] | 1.89
HVPNPPSGISFPSVVDHDMPEERA [P18D] | 2.78
HVPNPPSGISFPSVVDHEMPEERA [P18E] | 2.85
HVPNPPSGISFPSVVDHAMPEERA [P18A] | 2.61
HVPNPPSGISFPSVVDHQMPEERA [P18Q] | 2.61
HVPNPPSGISFPSVVDHIMPEERA [P18I] | 2.36
HVPNPPSGISFPSVVDHKMPEERA [P18K] | 2.7
HVPNPPSGISFPSVVDHTMPEERA [P18T] | 2.51
HVPNPPSGISFPSVVDHLMPEERA [P18L] | 2.56
HVPNPPSGISFPSVVDHNMPEERA [P18N] | 2.62
HVPNPPSGISFPSVVDHYMPEERA [P18Y] | 2.48
HVPNPPSGISFPSVVDHCMPEERA [P18C] | 2.25
HVPNPPSGISFPSVVDHFMPEERA [P18F] | 2.42
HVPNPPSGISFPSVVDHVMPEERA [P18V] | 2.64
HVPNPPSGISFPSVVDHGMPEERA [P18G] | 2.43
HVPNPPSGISFPSVVDHRMPEERA [P18R] | 2.79
HVPNPPSGISFPSVVDHWMPEERA [P18W] | 2.28
HVPNPPSGISFPSVVDHSMPEERA [P18S] | 2.61
HVPNPPSGISFPSVVDHMMPEERA [P18M] | 2.49
HVPNPPSGISFPSVVDHHMPEERA [P18H] | 2.49
